This note sets out measurements from patent EP1169642B1 (THE GOVERNMENT OF THE UNITED STATES OF AMERICA, as …, dated 2006).

In the test the target is T1, purified human complement Factor H (human, UniProt P08603 19-1231).
T1 construct: also called fH
The test can be described thus: steady state tryptophan fluorescence titration of Factor H with BSP.

T1 sequence (P08603 19-1231 limits assumed): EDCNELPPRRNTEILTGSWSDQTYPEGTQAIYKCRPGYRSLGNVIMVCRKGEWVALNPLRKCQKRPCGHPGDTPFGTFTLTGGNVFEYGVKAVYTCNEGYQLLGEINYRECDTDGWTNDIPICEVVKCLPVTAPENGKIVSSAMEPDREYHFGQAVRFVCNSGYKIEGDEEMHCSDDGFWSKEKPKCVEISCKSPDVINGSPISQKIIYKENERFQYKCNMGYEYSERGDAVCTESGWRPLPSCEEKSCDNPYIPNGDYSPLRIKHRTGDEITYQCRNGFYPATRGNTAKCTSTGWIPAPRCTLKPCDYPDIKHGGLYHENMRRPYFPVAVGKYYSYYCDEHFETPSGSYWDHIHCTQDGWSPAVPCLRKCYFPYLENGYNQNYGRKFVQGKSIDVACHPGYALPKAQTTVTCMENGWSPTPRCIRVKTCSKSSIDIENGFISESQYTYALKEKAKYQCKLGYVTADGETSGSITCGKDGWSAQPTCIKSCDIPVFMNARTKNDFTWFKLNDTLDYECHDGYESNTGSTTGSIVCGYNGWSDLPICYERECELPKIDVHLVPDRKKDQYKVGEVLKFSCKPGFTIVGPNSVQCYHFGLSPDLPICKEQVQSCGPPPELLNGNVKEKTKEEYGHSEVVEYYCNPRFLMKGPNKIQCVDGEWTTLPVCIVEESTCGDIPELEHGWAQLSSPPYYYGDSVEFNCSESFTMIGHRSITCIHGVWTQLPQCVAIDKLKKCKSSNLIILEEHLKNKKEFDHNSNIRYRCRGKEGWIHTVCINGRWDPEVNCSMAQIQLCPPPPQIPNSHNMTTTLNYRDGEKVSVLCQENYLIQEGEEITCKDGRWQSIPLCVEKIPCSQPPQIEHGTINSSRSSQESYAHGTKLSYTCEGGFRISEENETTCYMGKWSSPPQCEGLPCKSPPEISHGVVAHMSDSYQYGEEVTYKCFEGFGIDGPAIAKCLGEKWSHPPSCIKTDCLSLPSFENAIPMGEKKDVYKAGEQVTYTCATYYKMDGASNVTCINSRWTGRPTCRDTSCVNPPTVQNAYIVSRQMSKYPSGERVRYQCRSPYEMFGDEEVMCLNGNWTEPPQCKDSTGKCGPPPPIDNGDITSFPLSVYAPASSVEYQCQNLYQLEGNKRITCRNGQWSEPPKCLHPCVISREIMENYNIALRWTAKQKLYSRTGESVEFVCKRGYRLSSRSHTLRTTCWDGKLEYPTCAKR

B1: human bone sialoprotein (BSP) (ligand)
chain: FSMKNLHRRVKIEDSEENGVFKYRPRYYLYKHAYFYPHLKRFPVQGSSDSSEENGDDSSEEEEEEEETSNEGENNEESNEDEDSEAENTTLSATTLGYGEDATPGTGYTGLAAIQLPKKAGDITNKATKEKESDEEEEEEEEGNENEESEAEVDENEQGINGTSTNSTEAENGNGSSGGDNGEEGEEESVTGANAEGTTETGGQGKGTSKTTTSPNGGFEPTTPPQVYRTTSPPFGKTTTVEYEGEYEYTGVNEYDNGYEIYESENGEPRGDNYRAYEDEYSYFKGQGYDGYDGQNYYHHQ
modifications: glycosylated, phosphorylated and tyrosine-sulfated glycoprotein (sites not given)
notes: Natural BSP of human serum is entered under the same molecule; also called rBSP; recombinant BSP
Usually Kd stands for the concentration at which binding is half-saturated. In the case of B1, the Kd was no more than 1 nM and the “stoichiometry (BSP:Factor H)” value came out at 1 molar ratio.
